Changes are numbered by the printed parent chain.
T1: hGDF11 homodimer (human, UniProt O95390 299-407)
T1 sequence (looked up): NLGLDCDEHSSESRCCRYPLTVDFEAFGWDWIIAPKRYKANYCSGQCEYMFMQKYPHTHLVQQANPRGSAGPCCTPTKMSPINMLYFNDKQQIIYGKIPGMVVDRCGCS

T2: Human GDF8 homodimer (mature human Growth and Differentiation Factor-8) (human, UniProt O14793 267-375)
T2 sequence: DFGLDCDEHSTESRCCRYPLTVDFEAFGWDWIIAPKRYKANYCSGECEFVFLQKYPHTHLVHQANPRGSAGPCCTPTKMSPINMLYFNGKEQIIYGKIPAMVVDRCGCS

B1: 8D12-1 (antibody, V domains shown)
VH: QVQLVESGGGVVQPGRSLRLSCAASGFTFSRYGIHWVRQAPGKGLEWVAVISYDGSDEYYVDSVKGRFSISRDNSKNTLYLQMNSLRPADSAVYYCVKGDLELGFDYWGQGTLVTVSS
VL: DIVMTQAAPSIPVIPGESVSMSCRSSKSLLYSNGHTYVYWFVQRPGQSPQLLIYRMSNLASGVPDRFSGSGSGTAFTLRISRVEAEDVGVYYCMQNLEFPLTFGAGTKLELK
notes: probably the same antibody as 8D12
B2: 19F2 (antibody, V domains shown)
VH: QVQLVESGGGVVQPGRSLRLSCEASGFTFSSSGMHWVRQAPGKGLQWVAVISYDGNNKFYEDSVKGRLTISRDNSNNTLWLQMNSLRVEDTAVYYCAKSGGRVGAAFAYWGQGTLVTVSS
VL: DIVNTQSPLSLPVTPGEPASISCRSSQSLLYGNGYNYLDWYLQKPGHSPQLLIYLGSNRGSGVPDRFSGSGSGTDFTLKISRVEAEDVGIYYCMQTLQTPFTFGPGTKMYIK
B3: 22-D3 (antibody, V domains shown)
VH: QVQLVQSGGGLVKPGGSLRLSCAASGFTFSSYSMNWVRQAPGKGLEWVSSISSSSSYIYYADSVKGRFTISRDNAKNSLYLQMNSLRAEDTAVYYCARDRGYTFGVDYWGQGTTVTVSS
VL: AIQMTQSPSSLSASVGDRVTITCRASQGIRNDLGWYQQKPGKAPKRLIYAASSLQSGVPSRFSGSGSGTEFTLTISSLQPEDFATYYCLQHNSYPYTFGQGTKVEIKR
B4: 22-E6 (antibody, V domains shown)
VH: QVQLVQSGPGLVKPSETLSLTCTVSGGSIITYSYYWGWIRQPPGKGLEWIGTIHHSGSTYYNPSLKSRVTISVDTSKNQFSLTLSSVTAADTAVYYCARDYYDSSGYYYNWFDPWGQGTMVTVSS
VL: B3 VL with Y94S, Y96W
B5: 21-B9 (antibody, V domains shown)
VH: B4 VH with I30S, T31N, Y32S, S33N, I53T, H54Y, H55Y, S58T, T83K, M120T
VL: B3 VL with A1D, M4L, G28D, T72S, I75L, Y87F, N92H, S93I, Y96W, V104L
B6: 21-E9 (antibody, V domains shown)
VH: EVQLVQLGPGLVKPSETLSLTCTVSGGSISNSNYYWGWIRQPPGKGLEWIGTTYYSGTTYYNPSLKSRVTISVDTSKNQFSLKLSSVTAADTAVYYCARDYYDSSGYYYNWFDPWGQGTTVTVSS
VL: B3 VL with G28D, T72S, I75L, Y87F, N92H, S93I, Y96W
B7: 20B12 (antibody, V domains shown)
VH: EVQLLESGGGLVQPGGSLRLSCAGSGITFSSYAMSWVRQAPGKGLEWVSAISGNGGTTNYADSVKGRFTISRDNSKNTLYLQMNSLRAEDTAVYYCAKERILTSSWTRYGIMDVWGQGTTVTVSS
VL: EIVMTQSPATLSMSPGERATLSCRASQSVSSNLAWYQQKPGQAPRLLIYGASTRATGIPARFSGSGSGTEFTLTISSLQSEDFAVYYCQQYNNWPLTFGGGTKLEIK
B8: 4E3-7 (antibody, V domains shown)
VH: EVQLLESGGGLVQPGGSLRLSCVASRFTFSSNAMSWVRQAPGTGLEWVSAITGSGSRTYYADSVKGRFTISRDNSKNTVYLQMNSLRGEDTAVYYCAKDQGGTWNYGDFDYWGQGTLVTVSS
VL: B7 VL with M13V, I58L, E70D, L104V
B9: 4B9 (antibody, V domains shown)
VH: EVQLLESGGGLVQPGGSLRLSCAASGFTSITYAMSWVRQAPGKGLEWVSAISVSGTNTYYADSVKGRFTISRDKSKNMLYLQMNSLRAEDTAVYYCAKDLLHNWKYGTFDIWGQGTMVTVSS
VL: B7 VL with M13V, S30D, A34V, A43V, N93K, L104V
B10: 4G3-25 (antibody, V domains shown)
VH: QVQLVESGGGVVQPGRSLRLSCVVSGFNFSRNGIHWVRQAPGKGLEWVAVISYDGRNKFYVESVKGRFTISRDNSKNTLYLQMNSLRVEDTAVYYCAKSSIGGFFEYWGQGTLVTVSS
VL: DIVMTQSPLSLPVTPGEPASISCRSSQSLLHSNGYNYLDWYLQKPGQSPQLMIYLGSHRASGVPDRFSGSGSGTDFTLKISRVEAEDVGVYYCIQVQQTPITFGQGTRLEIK
B11: 3A4-3 (antibody, V domains shown)
VH: QVQLVQSGGGLVKPGGSLRLSCAASGFIFNTYTMNWVRQAPGKGLEWVSSITSRGTYIFYSDSLKGRFTISRDNANNSLFLQMNSLRVEDTAVYYCSRDRGYTFGPDYWGQGTLVTVSS
VL: DIQMTQSPSSLSASVGDRVTITCRASQDIRNDLGWYQQKPGKAPKGLIYAASSLQSGVPSRFSGSGSGTEFTLTISSLQPEDFATYHCLHYDFHPRTFGQGTKVEIK
B12: 22-G10 (antibody, V domains shown)
VH: QVHLKESGPTLVKPTQTLTLTCTFSGFSLSTSGVGVGWIRQPPGKALEWLALIYWNDDKRYSPSLKSRLTITKDTSKNQVVLTMTNMDPVDTATYYCTHTSRYNWHYGFLDYWGQGTTVTVSS
VL: AIQMTQSPSSLSASVGDRVTITCRASQGISNYLAWFQQKPGKAPKSLIYAASSLQSGVPSKFSGSGSGTDFTLTISSLQPEDFATYYCQQYNSYPLTFGGGTKVEIKR
B13: 58C8 (antibody, V domains shown)
VH: B9 VH
VL: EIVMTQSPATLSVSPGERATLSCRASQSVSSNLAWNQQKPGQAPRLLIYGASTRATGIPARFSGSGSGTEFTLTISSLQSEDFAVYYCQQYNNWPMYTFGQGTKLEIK
B14: 1H4-5 (antibody, V domains shown)
VH: QVQLVESGGDVVQPGRSLRLSCTASGFTFSSYGMHWVRQAPGRGLEWVAVISFDGKNKYYADSVKGRFTVSRDNSKNTLFLQMNSLRAEDTALYYCAKRIAATGYYYFYGLDVWGQGTTVTVSS
VL: B7 VL with V3M, M13V, A19G, T56S, I75V, L104V
B15: 3E2-1 (antibody, V domains shown)
VH: QVQLQQWGAGLLKPSETLSLTCAVYGGSFSGYYWSWIRQPPGKGLEWIGEINHSGNTNYNPSLKSRVTISVDTSKNQFSLKLNSVTAADTAVYYCARREATVTPYFDYWGQGTLVTVSS
VL: DIQLTQSPSFLSASVGDRVTITCWASQGISSYLAWYQQKPGKAPKLLIYAASTLQSGVPSRFSGSGSGTEFTLTISSLQPEDFATYYCQQLNSYPLTFGGGTKVEIK
B16: 9B4-3 (antibody, V domains shown)
VH: EVQLLESGGGLVQPGESLRLSCAASGFTFSSYAMNWVRQAPGKGLEWVSTISGSGGYIYYADSVKGRFTISRDNSKNTLYLQMNSLRAEDTAVYFCAKDSRYNWNYGNFDYWGQGTLVTVSS
VL: EIVMTQSPATLSVSPGERATLSCRASQNVSSNLAWNKQKPGQAPRLLIYATSTRATGVPARFSASGSGTDFALTINSLQSEDFAVYYCQQYNNWPLTFGGGTKVEIK

What follows are binders tested against T1, hGDF11 homodimer (assay: cell-based or functional assay).

| Binder | IC50, GDF11-inducible luciferase, A204/Smad2 cells, 0.8 nM GDF11 [nM] |
| --- | --- |
| B1 | > 25 |
| B2 | > 25 |
| B3 | > 25 |
| B4 | 22.4 |
| B5 | 1.2 |
| B6 | 1.2 |
| B7 | > 25 |
| B8 | > 25 |
| B9 | > 25 |
| B10 | > 25 |
| B11 | > 20 |
| B12 | > 25 |
| B13 | > 25 |

What follows are binders tested against T2, Human GDF8 homodimer (mature human …) (assay: cell-based or functional assay).

| Binder | IC50, GDF8-inducible luciferase, A204/Smad2 cells, 0.8 nM GDF8 [nM] |
| --- | --- |
| B1 | 2.4 |
| B2 | > 20 |
| B3 | > 20 |
| B4 | 2.2 |
| B5 | 0.62 |
| B6 | 0.99 |
| B7 | > 20 |
| B8 | 10.4 |
| B9 | 0.47 |
| B10 | > 25 |
| B11 | 3.1 |
| B12 | 10.5 |
| B13 | 1.8 |

These binders were tested against T1, hGDF11 homodimer (assay: SPR, antibody captured, 25 nM antigen).
Description: (§1) Equilibrium dissociation constants (KD values) for antigen binding to selected antibodies were determined by surface kinetics using a real-time biosensor surface plasmon resonance assay (BIACORE™ 2000). Each selected antibody was captured on either a goat anti-mouse IgG polyclonal antibody surface or a goat anti-hFc polyclonal antibody (Jackson Immuno Research Lab) surface created through direct chemical coupling to a BIACORE™ chip to form a captured antibody surface. Human GDF8 homodimer, hGDF11 homodimer, or hGDF5 homodimer at 25 nM was injected over the captured antibody surfaces, and antigen-antibody binding and dissociation were monitored in real time at room temperature. Kinetic analysis was performed to calculate KD, dissociation rate constants (kd), association rate constants (ka) and half-life of antigen/antibody complex dissociation (Table 2).

| Binder | Kd [nM] | T1/2 [min] |
| --- | --- | --- |
| B1 | 1.87 | 23 |
| B3 | 1.09 | 21 |
| B4 | 0.12 | 87 |
| B5 | 0.064 | 133 |
| B6 | 0.07 | 221 |
| B7 | 2.08 | 2 |
| B8 | 1.33 | 29 |
| B14 | 1.48 | 24 |
| B9 | 1.09 | 34 |
| B10 | 1.41 | 39 |
| B11 | 0.51 | 71 |
| B15 | 0.7 | 79 |
| B16 | 1.08 | 32 |
| B12 | 0.73 | 50 |
| B13 | 0.44 | 30 |

The binders below were run against T2, Human GDF8 homodimer (mature human …) (assay: SPR, antibody captured, 25 nM antigen).
Description: as §1

| Binder | Kd [nM] | T1/2 [min] |
| --- | --- | --- |
| B1 | 0.66 | 95 |
| B2 | 0.5 | 38 |
| B3 | 1.23 | 34 |
| B4 | 0.26 | 148 |
| B5 | 0.12 | 126 |
| B6 | 0.14 | 155 |
| B7 | 0.86 | 39 |
| B8 | 1.89 | 27 |
| B14 | 0.95 | 54 |
| B9 | 0.55 | 55 |
| B10 | 3.9 | 25 |
| B11 | 1.07 | 137 |
| B15 | 2.55 | 45 |
| B16 | 1.18 | 50 |
| B12 | 0.25 | 71 |
| B13 | 0.62 | 56 |

From patent publication US20160340421A1 (Regeneron, published 2016)
